Experimental data from paper PMC11567960.

Key:
[1] = target: cynomolgus monkey CD47 recombinant protein (cynomolgus monkey); assay: ELISA
[2] = target: human CD47 recombinant protein (human) (UniProt Q08722); assay: ELISA
Chain of UniProt Q08722 (Q08722 19-323): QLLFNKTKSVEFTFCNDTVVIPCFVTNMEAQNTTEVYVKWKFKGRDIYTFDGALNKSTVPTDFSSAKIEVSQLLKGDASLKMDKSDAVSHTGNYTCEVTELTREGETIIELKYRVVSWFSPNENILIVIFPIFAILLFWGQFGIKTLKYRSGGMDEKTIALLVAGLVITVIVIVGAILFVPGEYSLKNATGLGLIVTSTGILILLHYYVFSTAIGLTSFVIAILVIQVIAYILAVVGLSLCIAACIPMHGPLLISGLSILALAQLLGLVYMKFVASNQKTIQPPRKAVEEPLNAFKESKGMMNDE

EC50 [1]: 1.02 nM
EC50 [2]: 0.59 nM
Substance: HX009 (bispecific antibody)
